This note sets out measurements from paper PMC8783683, “Plasma cell dependence on histone/protein deacetylase 11 reveals a therapeutic target in multiple myeloma” (JCI Insight, 2021).

The target of test [1] is T1, IFN response factor 4 (IRF4), endogenous (human (endogenous in MM1.S and primary …, UniProt Q15306 1-451)).
T1 construct: IRF4, endogenous in human multiple myeloma cells (MM1.S line and primary patient MM cells), detected or precipitated by anti-IRF4; source: endogenous, MM1.S cells (fixed cells and lysate); endogenous, patient-derived primary MM cells
T1 sequence (looked up): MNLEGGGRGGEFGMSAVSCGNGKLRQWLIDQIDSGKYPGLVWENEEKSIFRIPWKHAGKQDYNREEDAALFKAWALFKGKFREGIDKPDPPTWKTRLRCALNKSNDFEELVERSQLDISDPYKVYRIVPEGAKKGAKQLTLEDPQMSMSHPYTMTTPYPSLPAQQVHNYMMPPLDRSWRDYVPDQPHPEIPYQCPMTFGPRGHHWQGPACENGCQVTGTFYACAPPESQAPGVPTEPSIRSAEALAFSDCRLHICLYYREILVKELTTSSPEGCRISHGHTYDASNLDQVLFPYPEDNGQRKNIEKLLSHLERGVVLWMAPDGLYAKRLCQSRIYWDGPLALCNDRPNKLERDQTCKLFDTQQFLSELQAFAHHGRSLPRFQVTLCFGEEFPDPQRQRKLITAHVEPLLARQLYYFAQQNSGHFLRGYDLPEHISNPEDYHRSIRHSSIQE
Description: proximity ligation assay (PLA). Particulars: MM1.S cells transfected with OE.HDAC11mut, read off a plot.

In test [2] the target is T1, IFN response factor 4 (IRF4), endogenous. The experiment in a line: proximity ligation; primary MM cells from patient samples, cultured with the patient's serum, untreated or with LPS (5 μg/mL, 24 hours). Particulars: partners not purified.

On to “HA-tagged WT HDAC11 (HDAC11^wt.HA) (from UniProt Q96DB2) HDAC11mut”, for which the response (# Foci Per Cell) came to 18 in test [1] (cytoplasmic foci, parent: est. 17) and 13 in test [1] (nuclear foci, parent: est. 105).

B1: histone/protein deacetylase 11 (HDAC11), endogenous (enzyme, UniProt Q96DB2 1-347, looked up)
chain: MLHTTQLYQHVPETRWPIVYSPRYNITFMGLEKLHPFDAGKWGKVINFLKEEKLLSDSMLVEAREASEEDLLVVHTRRYLNELKWSFAVATITEIPPVIFLPNFLVQRKVLRPLRTQTGGTIMAGKLAVERGWAINVGGGFHHCSSDRGGGFCAYADITLAIKFLFERVEGISRATIIDLDAHQGNGHERDFMDDKRVYIMDVYNRHIYPGDRFAKQAIRRKVELEWGTEDDEYLDKVERNIKKSLQEHLPDVVVYNAGTDILEGDRLGGLSISPAGIVKRDELVFRMVRGRRVPILMVTSGGYQKRTARIIADSILNLFGLGLIGPESPSVSAQNSDTPLLPPAVP
notes: HDAC11, endogenous in human multiple myeloma cells (MM1.S line and primary patient MM cells), detected by mouse anti-HDAC11 in PLA; source: endogenous, MM1.S cells; endogenous, patient-derived primary MM cells
As for B1, the “fold increase of nuclear PLA complexes with LPS against untreated cells” value in test [2] was determined as 4.5 fold.
